This note sets out measurements from paper PMC8096239, “Nse5/6 is a negative regulator of the ATPase activity of the Smc5/6 complex”.

The target of this data set is Smc5/6 holo-complex (S5-S6-N2/N1-N3-N4);Nse5/6 (Saccharomyces cerevisiae;Saccharomyces …, UniProt Q08204;Q12749;P38632;Q07913;Q05541;P43124;Q03718;P40026 …, |). As to the kind of experiment: EMSA; purified super-complex containing Nse5/6; no significant perturbation vs holo-complex; EMSA: 200 nM hairpin, 20 mM HEPES-NaOH pH 7.5, 150 mM NaCl, 0.5 mM TCEP, 30 min at 4 C; 0.8% TBE-agarose gel, 50 V, 3 h, 4 C. As to conditions: protein: recombinant;recombinant, tags: Smc5-FLAG, Smc6-AVI-HIS, HA-Nse2, HIS-TEV-Nse1, Nse3 untagged, Nse4-HALO-Myc;Nse5-C.tag (GAAEPEA), HIS-3C-Nse6, copies: 1;1;1;1;1;1;1;1, label: fluorescein on position 5 of thymine, 6-carbon spacer, 48 bp stem, 4 nt loop AATA, blunt end. For orientation: Mobility shift assays separate free from complexed probe on a gel.

B1: oligonucleotide C, self-annealed dsDNA hairpin (structured_DNA)
DNA: ATCAGTACTTGTCAACACGAGCAGCCCGTATATTCTCCTACAGCACTAAATATAGTGCTGTAGGAGAATATACGGGCTGCTCGTGTTGACAAGTACTGAT
modifications: internal fluorescein-dT (iFT), between S3 and S4 (position 51, in loop)
Consider B1, for which the binding result is recorded as “binds”.
